B1: Delta-type opioid receptor (Homo sapiens), P41143 (parent)
chain: MEPAPSAGAELQPPLFANASDAYPSACPSAGANASGPPGARSASSLALAIAITALYSAVCAVGLLGNVLVMFGIVRYTKMKTATNIYIFNLALADALATSTLPFQSAKYLMETWPFGELLCKAVLSIDYYNMFTSIFTLTMMSVDRYIAVCHPVKALDFRTPAKAKLINICIWVLASGVGVPIMVMAVTRPRDGAVVCMLQFPSPSWYWDTVTKICVFLFAFVVPILIITVCYGLMLLRLRSVRLLSGSKEKDRSLRRITRMVLVVVGAFVVCWAPIHIFVIVWTLVDIDRRDPLVVAALHLCIALGYANSSLNPVLYAFLDENFKRCFRQLCRKPCGRPDPSSFSRAREATARERVTACTPSDGPGGGAAA

Variants of: B1
Conditions: with gasp1_human GPRASP1, Q5JY77
Chain of gasp1_human GPRASP1, Q5JY77 (Q5JY77 whole entry): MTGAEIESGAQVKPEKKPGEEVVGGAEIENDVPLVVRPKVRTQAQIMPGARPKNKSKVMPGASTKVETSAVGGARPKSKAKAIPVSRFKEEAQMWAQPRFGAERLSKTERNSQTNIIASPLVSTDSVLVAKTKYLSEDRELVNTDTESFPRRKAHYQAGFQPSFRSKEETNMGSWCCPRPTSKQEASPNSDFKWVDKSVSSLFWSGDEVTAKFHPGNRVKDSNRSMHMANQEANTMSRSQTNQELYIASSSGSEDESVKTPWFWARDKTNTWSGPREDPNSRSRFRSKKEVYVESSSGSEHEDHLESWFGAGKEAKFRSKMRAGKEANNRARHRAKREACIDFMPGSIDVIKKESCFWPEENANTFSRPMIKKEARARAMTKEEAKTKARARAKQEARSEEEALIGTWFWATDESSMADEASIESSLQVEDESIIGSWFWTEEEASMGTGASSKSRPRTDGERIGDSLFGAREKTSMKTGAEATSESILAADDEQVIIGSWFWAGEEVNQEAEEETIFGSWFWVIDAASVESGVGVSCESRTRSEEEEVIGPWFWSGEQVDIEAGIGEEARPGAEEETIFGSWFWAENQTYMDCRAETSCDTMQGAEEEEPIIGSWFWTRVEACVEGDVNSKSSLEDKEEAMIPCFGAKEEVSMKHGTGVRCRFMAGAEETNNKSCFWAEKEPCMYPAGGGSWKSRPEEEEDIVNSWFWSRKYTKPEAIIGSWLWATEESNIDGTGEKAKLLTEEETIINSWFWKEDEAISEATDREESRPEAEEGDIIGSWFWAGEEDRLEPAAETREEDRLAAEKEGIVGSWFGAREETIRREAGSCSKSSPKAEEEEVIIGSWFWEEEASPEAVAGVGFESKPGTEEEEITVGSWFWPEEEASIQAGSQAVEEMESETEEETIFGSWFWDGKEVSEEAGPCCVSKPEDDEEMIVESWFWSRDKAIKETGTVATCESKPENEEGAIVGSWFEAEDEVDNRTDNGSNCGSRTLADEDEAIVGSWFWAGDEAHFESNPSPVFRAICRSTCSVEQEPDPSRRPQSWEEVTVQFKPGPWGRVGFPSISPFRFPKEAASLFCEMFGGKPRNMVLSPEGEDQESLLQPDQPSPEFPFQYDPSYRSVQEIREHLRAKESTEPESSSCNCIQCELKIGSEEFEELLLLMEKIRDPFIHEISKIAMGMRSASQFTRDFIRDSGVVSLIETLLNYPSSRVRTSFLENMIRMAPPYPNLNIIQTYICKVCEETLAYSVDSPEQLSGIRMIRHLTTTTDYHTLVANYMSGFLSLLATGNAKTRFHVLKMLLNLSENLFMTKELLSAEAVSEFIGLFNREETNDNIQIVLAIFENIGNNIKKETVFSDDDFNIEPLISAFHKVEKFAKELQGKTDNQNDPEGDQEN

effect of a mutation on the interaction	Variant
decreasing interaction	MEPAPSAGAELQPPLFANASDAYPSACPSAGANASGPPGARSASSLALAIAITALYSAVCAVGLLGNVLVMFGIVRYTKMKTATNIYIFNLALADALATSTLPFQSAKYLMETWPFGELLCKAVLSIDYYNMFTSIFTLTMMSVDRYIAVCHPVKALDFRTPAKAKLINICIWVLASGVGVPIMVMAVTRPRDGAVVCMLQFPSPSWYWDTVTKICVFLFAFVVPILIITVCYGLMLLRLRSVRLLSGSKEKDRSLRRITRMVLVVVGAFVVCWAPIHIFVIVWTLVDIDRRDPLVVAALHLCIALGYANSSLNPVLYAFLDENAARCFRQLCRKPCGRPDPSSFSRAREATARERVTACTPSDGPGGGAAA [F325A;K326A]
